Results reported in article PMC4968620 (Biochemistry, 2016).

Molecular target: the molecule itself
Test: SAXS

B1: HsRXRαΔNTD (130-462) (domain or fragment)
chain: FTKHICAICGDRSSGKHYGVYSCEGCKGFFKRTVRKDLTYTCRDNKDCLIDKRQRNRCQYCRYQKCLAMGMKREAVQEERQRGKDRNENEVESTSSANEDMPVERILEAELAVEPKTETYVEANMGLNPSSPNDPVTNICQAADKQLFTLVEWAKRIPHFSELPLDDQVILLRAGWNELLIASFSHRSIAVKDGILLATGLHVHRNSAHSAGVGAIFDRVLTELVSKMRDMQMDKTELGCLRAIVLFNPDSKGLSNPAEVEALREKVYASLEAYCKHKYPEQPGRFAKLLLRLPALRSIGLKCLEHLFFFKLIGDTPIDTFLMEMLEAPHQMT
stoichiometry N: 2
